The text below walks through data of PMC8769549.

In test [1] the target is SARS-CoV-2 nsp3 ubiquitin-like domain Ubl1 (1 to 111) (SARS-CoV-2). Description: ITC.
Test [2] deals with SARS-CoV-2 nsp3a (1 to 206) (SARS-CoV-2). Description: ITC. In general terms: In ITC the heat of successive injections is recorded.

pKd: −log10 of the molar value.

One may read the pKd as −log10 of the Kd, conventionally taken in molar units. High values mean a low Kd, low ones a high Kd. By stoichiometry N is commonly meant the number of molecules, sites or subunits per partner or assembly. “SARS-CoV-2 nucleoprotein N123 (domains N1, N2 and N3) (domain or fragment)”: in test [1], the negative-log Kd (pKd) was 7.14 and the stoichiometry N worked out at 0.903. Also, in test [2], the pKd was 6.88 and the stoichiometry N turned out to be 0.665.
